For test [1], the target named is T1, Human IL12 (His Tag) (human, UniProt P29459 23-219; P29460 23-328).
T1 construct: Bought His-tagged heterodimer
T1 sequence (looked up) 1: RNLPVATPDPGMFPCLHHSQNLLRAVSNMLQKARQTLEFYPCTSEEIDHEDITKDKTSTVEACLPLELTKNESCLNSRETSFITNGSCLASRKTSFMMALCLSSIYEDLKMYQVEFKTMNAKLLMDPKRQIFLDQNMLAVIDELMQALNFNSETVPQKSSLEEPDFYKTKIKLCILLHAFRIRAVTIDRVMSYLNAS
T1 sequence (looked up) 2: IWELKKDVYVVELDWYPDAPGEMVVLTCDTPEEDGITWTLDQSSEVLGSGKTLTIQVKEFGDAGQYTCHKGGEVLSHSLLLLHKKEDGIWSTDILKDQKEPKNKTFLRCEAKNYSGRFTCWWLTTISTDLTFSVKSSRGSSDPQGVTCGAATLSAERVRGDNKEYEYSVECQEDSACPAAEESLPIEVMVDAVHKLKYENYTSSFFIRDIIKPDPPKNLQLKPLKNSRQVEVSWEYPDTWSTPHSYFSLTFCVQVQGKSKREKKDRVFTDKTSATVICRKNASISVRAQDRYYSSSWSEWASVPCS
Nature of the test: FACS competition, IL-12-His 20 nM on 293T-IL-12Rβ1&IL-23R cells; antibody 30 µg/mL. The method, then:
(§1) 200 μL of 1% PBSA was added into each sample, and the mixture was centrifuged at 700×g for 5 min to discard the supernatant. According to experiment design, correspondingly diluted antibody (highest final concentration of 30 μg/mL, 3-fold dilution, 8 concentrations in total) and human IL-12 (Sino Biological, Cat. No.: CT-050-H08H-20) (final concentration of 20 nM) were mixed at a ratio of 1:1, and a blank control was set. The mixture of antibody and human IL12 was incubated on ice for 30 min and then added to the cell precipitate at 100 μL/sample. The resulting mixture was well mixed and incubated on ice for 60 min 200 μL of 1% PBSA was added, and the mixture was centrifuged at 700×g for 5 min to discard the supernatant, and then washed twice. Alexa Fluor® 488 anti-His tag antibody (Biolegend, Cat. No.: 652509) was diluted at a ratio of 1:400 and added to each tube at 100 μL. The mixture was well mixed and incubated on ice for 40 min in the absence of light. 200 μL of 1% PBSA was added, and the mixture was centrifuged at 700×g for 5 min to discard the supernatant, and then washed twice. 1% PBSA was added at 200 μL/tube, and the cells were resuspended and transferred to a flow cytometry tube for testing.

In test [2] the target is T2, human IL-23 (IL-23-His-Biotin) (human, UniProt Q9NPF7 20-189; P29460 23-328, biotin label, site not stated).
T2 construct: Akesobio lot 20161209; His-tagged and biotinylated
T2 sequence (looked up) 1: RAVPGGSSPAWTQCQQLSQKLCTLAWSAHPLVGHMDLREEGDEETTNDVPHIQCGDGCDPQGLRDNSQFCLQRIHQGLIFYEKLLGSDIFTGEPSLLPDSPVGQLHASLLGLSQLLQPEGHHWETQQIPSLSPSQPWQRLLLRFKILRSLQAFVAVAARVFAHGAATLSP
T2 sequence (looked up) 2: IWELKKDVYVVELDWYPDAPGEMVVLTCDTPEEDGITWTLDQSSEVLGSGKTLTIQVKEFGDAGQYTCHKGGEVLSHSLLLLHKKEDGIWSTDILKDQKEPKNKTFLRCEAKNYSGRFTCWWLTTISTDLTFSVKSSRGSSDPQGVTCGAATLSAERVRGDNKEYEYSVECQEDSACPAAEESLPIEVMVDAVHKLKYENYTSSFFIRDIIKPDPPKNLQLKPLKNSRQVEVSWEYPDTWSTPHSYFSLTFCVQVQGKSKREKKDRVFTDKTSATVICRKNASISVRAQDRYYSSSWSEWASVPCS
Briefly: FACS competition, IL-23-His-Biotin 2 µg/mL on 293T-IL-12Rβ1&IL-23R cells; antibody 0.01 µg/mL. How it is done:
(§2) 200 μL of 1% PBSA was added into each sample, and the mixture was centrifuged at 700×g for 5 min to discard the supernatant. According to experiment design, correspondingly diluted antibody (highest final concentration of 30 μg/mL, 3-fold dilution, 8 concentrations in total) and human IL-23 (IL-23-His-Biotin, Akesobio, 20161209) (final concentration of 2 μg/mL) were mixed at a ratio of 1:1, and a blank control was set. The mixture of antibody and human IL23 was incubated on ice for 30 min and then added to the cell precipitate at 100 μL/sample. The resulting mixture was well mixed and incubated on ice for 60 min. 200 μL of 1% PBSA was added, and the mixture was centrifuged at 700×g for 5 min to discard the supernatant, and then washed twice. FITC Steptavidin (Biolegend, Cat. No.: 405202) was diluted at a ratio of 1:500 and added to each tube at 100 μL. The mixture was well mixed and incubated on ice for 40 min in the absence of light. 200 μL of 1% PBSA was added, and the mixture was centrifuged at 700×g for 5 min to discard the supernatant, and then washed twice. 1% PBSA was added at 200 μL/tube, and the cells were resuspended and transferred to a flow cytometry tube for testing.

Test [3] deals with T1, Human IL12 (His Tag). Nature of the test: FACS competition, IL-12-His 20 nM on 293T-IL-12Rβ1&IL-23R cells; antibody 10 µg/mL. The method, then: as §1
In test [4] the target is T2, human IL-23 (IL-23-His-Biotin). Nature of the test: FACS competition, IL-23-His-Biotin 2 µg/mL on 293T-IL-12Rβ1&IL-23R cells. The method, then:
as §2

The target in test [5] is T1, Human IL12 (His Tag). Nature of the test: FACS competition, IL-12-His 20 nM on 293T-IL-12Rβ1&IL-23R cells; antibody 0.37 µg/mL. The method, then:
as §1

Test [6] deals with T2, human IL-23 (IL-23-His-Biotin). Briefly: FACS competition, IL-23-His-Biotin 2 µg/mL on 293T-IL-12Rβ1&IL-23R cells; antibody 0.12 µg/mL. How it is done:
as §2

B1: H5L10 (antibody, human IgG1, kappa, V domains shown)
VH: EVQLVQSGAEVKKPGESLKISCQSSGYSFTTYWIGWVRQMPGQGLEWIGIMSPVDSDIRYNPMFRGQVTMSVDKSSSTAYLQWSSLKASDTAMYYCARRRPGQGYFDFWGQGTMVTVSS
VL: EIVLTQSPATLSASPGERATISCRASQSVGSWLAWYQQKPGQAPRSLIYAASNLQSGIPARFSGSGSGTDFTLTISSLEPEDFAVYYCQQYNIYPYTFGQGTRLEIKR
notes: human IgG1 / kappa constant regions; also called humanized antibody H5L10
Broadly, the EC50 is the concentration needed to bring the measured effect to its halfway point. High values mean lower potency in that assay, low ones higher potency in that assay. For the molecule B1, the MFI worked out at 31.6 MFI with Human IL12 (His Tag) [1]; 223 MFI in test [2]; 34.1 MFI in the test with Human IL12 (His Tag) [3]; 87.5 MFI with Human IL12 (His Tag) [5]; 221 MFI in test [6]. Further, in test [4], the EC50 came out at 0.7 µg/mL.

B2: H5L9 (antibody, human IgG1, kappa, V domains shown)
VH: EVQLVQSGAEVKKPGESLKISCQSSGYSFTTYWIGWVRQMPGQGLEWIGIMSPVDSDIRYNPMFRGQVTMSVDKSSSTAYLQWSSLKASDTAMYYCARRRPGQGYFDFWGQGTMVTVSS
VL: DIQMTQSPSSLSASVGDRVTITCKASQNVGSWLAWYQQKPGKAPKSLIYSASSRQSGVPSRFSGSGSGTDFTLTISSLQPEDFATYYCQQYDIYPFTFGQGTKLEIKR
notes: human IgG1 (P01857) / kappa (P01834) constant regions; also called humanized antibody H5L9
B2: the MFI was 117 MFI with Human IL12 (His Tag) [1]; 222 MFI in test [2]; 134 MFI in the test with Human IL12 (His Tag) [3]; 159 MFI in the test with Human IL12 (His Tag) [5]; 217 MFI in test [6]. In addition, in test [4], the response was half-maximal at 4.25 µg/mL (EC50).

B3: H5L12 (antibody, human IgG1, kappa, V domains shown)
VH: EVQLVQSGAEVKKPGESLKISCQSSGYSFTTYWIGWVRQMPGQGLEWIGIMSPVDSDIRYNPMFRGQVTMSVDKSSSTAYLQWSSLKASDTAMYYCARRRPGQGYFDFWGQGTMVTVSS
VL: EIVLTQSPATLSASPGERATISCRASQSVSSWLAWYQQKPGQAPRSLIYAASNRQSGIPARFSGSGSGTDFTLTISSLEPEDFAVYYCQQYNIYPYTFGQGTRLEIKR
notes: human IgG1 / kappa constant regions; also called humanized antibody H5L12
On to B3, for which the MFI in the test with Human IL12 (His Tag) [1] was determined as 31.8 MFI; in test [2], 221 MFI; with Human IL12 (His Tag) [3], 32.4 MFI; in the test with Human IL12 (His Tag) [5], 86.6 MFI; in test [6], 211 MFI. A half-maximal response in test [4] (EC50) required 0.775 µg/mL.

B4: H5L11 (antibody, human IgG1, kappa, V domains shown)
VH: EVQLVQSGAEVKKPGESLKISCQSSGYSFTTYWIGWVRQMPGQGLEWIGIMSPVDSDIRYNPMFRGQVTMSVDKSSSTAYLQWSSLKASDTAMYYCARRRPGQGYFDFWGQGTMVTVSS
VL: EIVLTQSPATLSASPGERATISCRASQSVSSWLAWYQQKPGQAPRSLIYSASNLQSGIPARFSGSGSGTDFTLTISSLEPEDFAVYYCQQYNIYPYTFGQGTRLEIKR
notes: human IgG1 / kappa constant regions; also called humanized antibody H5L11
As for B4, the MFI with Human IL12 (His Tag) [1] was 33 MFI; in test [2] it was 219 MFI; in the test with Human IL12 (His Tag) [3] it was 33.9 MFI; with Human IL12 (His Tag) [5], 103 MFI; in test [6] it was 219 MFI. Moreover, a half-maximal effect in test [4] (EC50) was put at 0.864 µg/mL.

B5: H5L14 (antibody, human IgG1, kappa, V domains shown)
VH: EVQLVQSGAEVKKPGESLKISCQSSGYSFTTYWIGWVRQMPGQGLEWIGIMSPVDSDIRYNPMFRGQVTMSVDKSSSTAYLQWSSLKASDTAMYYCARRRPGQGYFDFWGQGTMVTVSS
VL: EIVLTQSPATLSASPGERATISCRASQSVSSWLAWYQQKPGQAPRSLIYAASNLQSGIPARFSGSGSGTDFTLTISSLEPEDFAVYYCQQYNIYPFTFGQGTRLEIKR
notes: human IgG1 / kappa constant regions; also called humanized antibody H5L14
B5: the MFI worked out at 34.9 MFI with Human IL12 (His Tag) [1]; 218 MFI in test [2]; 46.3 MFI in the test with Human IL12 (His Tag) [3]; 113 MFI in the test with Human IL12 (His Tag) [5]; 203 MFI in test [6]. Moreover, the 50% effective concentration (EC50) in test [4] was found to be 0.881 µg/mL.

B6: ustekinumab (antibody, V domains shown)
VH: EVQLVQSGAEVKKPGESLKISCKGSGYSFTTYWLGWVRQMPGKGLDWIGIMSPVDSDIRYSPSFQGQVTMSVDKSITTAYLQWNSLKASDTAMYYCARRRPGQGYFDFWGQGTLVTVSS
VL: DIQMTQSPSSLSASVGDRVTITCRASQGISSWLAWYQQKPEKAPKSLIYAASSLQSGVPSRFSGSGSGTDFTLTISSLQPEDFATYYCQQYNIYPYTFGQGTKLEIK
On to B6, for which the MFI with Human IL12 (His Tag) [1] is 28.7 MFI; in test [2], 219 MFI; with Human IL12 (His Tag) [3], 31 MFI; in the test with Human IL12 (His Tag) [5], 95.7 MFI; in test [6] it was 211 MFI. Besides, the response in test [4] was half-maximal at 1.16 µg/mL (EC50).

For the origin of these results see US20220298235A1 (AKESO BIOPHARMA, published 2022).
